Assay results as given in patent publication US20240058275A1, “NANO-SILICA - IN YEAST PARTICLE (YP) DRUG ENCAPSULATION APPROACH FOR IMPROVED THERMAL AND HYDROLASE STABILITY OF YP DRUG DELIVERY FORMULATIONS” (UNIVERSITY OF MASSACHUSETTS, priority 2022, published 2024).

B1: Ovalbumin: ovalbumin protein payload (protein, UniProt P01012 2-386, looked up)
Ovalbumin: GSIGAASMEFCFDVFKELKVHHANENIFYCPIAIMSALAMVYLGAKDSTRTQINKVVRFDKLPGFGDSIEAQCGTSVNVHSSLRDILNQITKPNDVYSFSLASRLYAEERYPILPEYLQCVKELYRGGLEPINFQTAADQARELINSWVESQTNGIIRNVLQPSSVDSQTAMVLVNAIVFKGLWEKAFKDEDTQAMPFRVTEQESKPVQMMYQIGLFRVASMASEKMKILELPFASGTMSMLVLLPDEVSGLEQLESIINFEKLTEWTSSNVMEERKIKVYLPRMKMEEKYNLTSVLMAMGITDVFSSSANLSGISSAESLKISQAVHAAHAEINEAGREVVGSAEAGVDAASVSEEFRADHPFLFCIKHIATNAVLFFGRCVSP

Tests used:
[1] = Encapsulation efficiency of proteins ensilicated in GPs with 100% TEOS; assay type: physicochemical; conditions: 100% TEOS prepolymerized at pH 2, SDS-PAGE
Method: Dry GPs were mixed with a solution of 25 mg/mL protein in water (4 μL protein solution per mg GP, 100 μg protein per mg GP), incubated to allow for complete absorption of protein solution inside the hollow cavity of GPs, and then the samples were frozen and lyophilized. To maximize protein incorporation into GPs, the dry GP-OVA samples were hydrated with 2 μL water per mg GP, mixed, frozen, and lyophilized. TEOS (Millipore Sigma, Burlington, MA, USA; #86578, ≥99% purity, density 0.933 g/mL) was mixed with a 0.01 M HCl (pH 2) solution at a volume ratio of 2:1 (v/v) aqueous HCl:TEOS and the sample was incubated at 20° C. with constant mixing for one hour to allow for partial polymerization of TEOS. Then, the partially polymerized single phase TEOS solution was added to dry GP-protein (4 μL per mg GP) and the sample was incubated for one hour. GP ensilicated protein samples were suspended in 0.9% sterile saline (5 mg GP/mL), centrifuged and the supernatants were collected to quantify unencapsulated protein. The samples were then washed three more times in 0.9% sterile saline, suspended in 0.9% saline at 5 mg GP/mL and stored at 20° C.
GP ensilicated protein was extracted and quantified by following the procedure described above for BSA. Proteins in the GP supernatants and pellets were quantified by SDS-PAGE.

[2] = Ensilication (trapping) efficiency of BSA within GPs, quantified by SDS-PAGE; assay type: physicochemical; conditions: TEOS pre-polymerized at pH 2, TEOS:rBSA ratios of 1.3 to 24.9
Method: The efficiency of ensilication of BSA within GPs was tested. […] The samples were mixed, incubated at room temperature for 30 minutes, frozen and lyophilized to remove solvent. The loading cycle was repeated by adding 10 μL of water to the dry fGP rBSA sample to draw payload within the matrix of the GP shell into the hollow GP cavity, the sample was mixed and lyophilized to remove solvent.
TEOS was mixed with 0.01 M HCl solution (pH 2). The mixture was mixed for 1 hour to achieve TEOS prepolymerization and formation of a single aqueous phase in which the TEOS was close to its gel point. Solutions with different ratios of TEOS and 0.01 M HCl were prepared to target TEOS:rBSA weight ratios from 0 to 24.9. […]
The ensilicated fGP-rBSA samples were washed three times with 0.9% saline. The ensilicated fGP rBSA pellets were evaluated by microscopy to assess efficient trapping of rBSA within the cavity of fGPs, and percent protein encapsulation was quantified by SDS-PAGE. […]
Acid catalyzed TEOS forms long, linear polymers that easily entangle and gel. […] The percent of BSA trapped in GPs was measured as described above.
GPs containing ensilicated fBSA were also prepared as described before at the optimal TEOS polymerization conditions with 0.01 M HCl (pH 2) for use as control. Percent of BSA trapped in GPs was measured as described above.

| Molecule | % encapsulation efficiency in GPs [1] [%] | percent of rBSA trapped in fGPs [2] [%] |
| --- | --- | --- |
| Transferrin: transferrin protein payload | 92 ± 8 |  |
| rBSA: rhodamine labeled BSA payload |  | > 80 |
| B1 | 97 ± 3 |  |
